Test results taken from article PMC8896794 (Science Advances, 2022).
Numbering of substitutions follows the chain as printed.

B1: K1-18 monoclonal antibody, wild type (antibody, V domains shown)
VH: EVQLVQSGAEVKKPGESLKISCKGSGYSFTNYWIGWVRQMPGKGLEWMGIIYPYDSDTRYSPSFEGQVTISADKSIRTAYLHWSSLKASDTAMYYCVRPRDGSYPYDAFDIWGQGTMVTVSS
VL: EIVLTQSPGTLSLSPGERATLSCRASQSVSNNYLAWYQQKPGQAPRLLIYGASSRATGIPDRFSGSGSGTDFTLTISRLEPEDFAVYYCQHCGSSLRAFGQGTKVEIK
notes: constant region of the λ chain is not described; IgG1; thyroid-stimulating autoantibody (TRAb) from a Graves' disease patient; also called WT K1-18; K1-18 mAb; source: recombinant, V regions synthesized and cloned into pME18S expression vectors
B2: M22 thyroid-stimulating monoclonal antibody (antibody, V domains shown)
VH: QVQLVQSGAEVKKPGESLKISCRGSGYRFTSYWINWVRQLPGKGLEWMGRIDPTDSYTNYSPSFKGHVTVSADKSINTAYLQWSSLKASDTGMYYCARLEPGYSSTWSVNWGQGTLVTVSS
VL: LTVLTQPPSVSGAPRQRVTISCSGNSSNIGNNAVNWYQQLPGKAPKLLIYYDDQLPSGVSDRFSGSRSGTSASLAIRGLQSEDEADYYCTSWDDSLDSQLFGGGTRLTVL
notes: constant region of the λ chain is not described; IgG1; also called M22 mAb; source: recombinant, V regions synthesized and cloned into pME18S expression vectors
B3: germlined K1-18 monoclonal antibody (antibody, V domains shown)
VH: B1 VH with N31S, Y54G, V97A
VL: B1 VL with N31S, N32S
notes: constant region of the λ chain is not described; IgG1; also called germlined K1-18 mAb; source: recombinant, mutated from wild-type K1-18 V regions (QuikChange), pME18S expression vectors

What was measured:
[1] = target: T1, full-length human TSHR complexed with HLA-DP5 (HLA-DPA1*02:02/HLA-DPB1*05:01) (Homo sapiens; …, UniProt P16473;IMGT, strain); assay: flow cytometry on cells; HEK293T cells transfected with TSHR or TSHR ECD with or without HLA-DP (pME18S, with GFP), incubated with the human anti-TSHR mAb, then APC-conjugated anti-human IgG; FACSCalibur; MFI minus that of GFP-negative cells
T1 construct: thyroid-stimulating hormone receptor (TSHR), human, cDNA AY429111.1, full length; co-expressed in one cell; also called TSHR with HLA-DP5; TSHR/HLA-DP5 complex; source: HEK293T, co-transfected (pME18S), on cells; copies: + +

[2] = target: T2, human TSHR extracellular domain complexed with HLA-DP5 (Homo sapiens; HLA-DPA1*02:02/DPB1*05:01, UniProt P16473;IMGT, strain); assay: as above
T2 construct: human TSHR extracellular domain (ECD), residues 22 to 282; the ECD has no membrane anchor of its own and is seen on the cell surface with HLA-DP5; also called TSHR ECD with HLA-DP5; TSHR ECD/HLA-DP complex; source: HEK293T, co-transfected (pME18S), on cells; not shown: Flag, N-terminal, kept; copies: + +

[3] = target: T3, full-length mouse TSHR on DAP.3 cells (mTSHR alone) (Mus musculus, UniProt P47750); assay: flow cytometry on cells; DAP.3 cells stably expressing mTSHR alone or mTSHR and I-A^k stained with K1-18 mAb; DAP.3 parental cells as control
T3 construct: thyroid-stimulating hormone receptor, mouse, cDNA NM_011648.5, full length
T3 sequence (P47750 22-764): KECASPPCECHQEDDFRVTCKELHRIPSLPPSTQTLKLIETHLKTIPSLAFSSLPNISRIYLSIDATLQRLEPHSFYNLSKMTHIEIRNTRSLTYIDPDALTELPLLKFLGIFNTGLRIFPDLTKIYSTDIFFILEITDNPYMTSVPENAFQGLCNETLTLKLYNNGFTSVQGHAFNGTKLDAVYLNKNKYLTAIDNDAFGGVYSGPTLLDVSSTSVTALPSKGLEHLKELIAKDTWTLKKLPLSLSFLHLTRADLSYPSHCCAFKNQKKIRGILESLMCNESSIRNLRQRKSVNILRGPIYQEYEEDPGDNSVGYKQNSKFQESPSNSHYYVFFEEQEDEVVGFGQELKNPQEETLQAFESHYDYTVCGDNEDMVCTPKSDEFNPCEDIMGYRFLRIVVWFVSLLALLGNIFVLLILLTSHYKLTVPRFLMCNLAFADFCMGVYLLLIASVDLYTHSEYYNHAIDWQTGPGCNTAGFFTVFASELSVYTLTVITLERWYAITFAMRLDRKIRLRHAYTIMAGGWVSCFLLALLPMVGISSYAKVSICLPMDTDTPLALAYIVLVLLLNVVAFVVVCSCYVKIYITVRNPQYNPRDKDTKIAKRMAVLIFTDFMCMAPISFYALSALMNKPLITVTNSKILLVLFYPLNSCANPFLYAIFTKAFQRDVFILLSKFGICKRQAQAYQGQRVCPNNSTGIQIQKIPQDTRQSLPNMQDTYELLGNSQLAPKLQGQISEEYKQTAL

[4] = target: T4, full-length mouse TSHR with I-A^k on DAP.3 cells (Mus musculus; I-Ak, UniProt P47750;P01910;P06343); assay: as above
T4 construct: thyroid-stimulating hormone receptor, mouse, cDNA NM_011648.5, full length; mouse MHC class II I-A^k alpha chain, cDNA V00832.1; mouse MHC class II I-A^k beta chain, cDNA M13538.1; co-expressed in one cell; also called mTSHR + I-A^k; mTSHR and I-A^k; copies: + +
T4 sequence (P47750 22-764, chain 1 of 3): as the sequence (P47750 22-764) above
T4 sequence (P01910 24-256, chain 2 of 3): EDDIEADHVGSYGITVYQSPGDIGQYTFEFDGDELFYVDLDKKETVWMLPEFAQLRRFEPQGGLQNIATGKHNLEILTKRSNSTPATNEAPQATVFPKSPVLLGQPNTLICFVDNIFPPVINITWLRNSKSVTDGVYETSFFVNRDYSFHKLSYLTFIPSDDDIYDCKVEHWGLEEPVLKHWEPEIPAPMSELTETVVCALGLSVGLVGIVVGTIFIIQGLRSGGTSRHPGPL
T4 sequence (P06343 28-263, chain 3 of 3): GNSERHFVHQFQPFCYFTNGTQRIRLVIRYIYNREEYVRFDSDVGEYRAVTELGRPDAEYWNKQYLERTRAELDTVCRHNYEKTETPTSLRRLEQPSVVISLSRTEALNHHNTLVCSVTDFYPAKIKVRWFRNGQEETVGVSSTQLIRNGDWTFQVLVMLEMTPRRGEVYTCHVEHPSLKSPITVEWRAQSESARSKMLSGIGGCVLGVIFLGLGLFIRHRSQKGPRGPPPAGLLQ

porcine TSHR = target: T5, porcine TSHR (Sus scrofa, UniProt Q8SPP9); assay: flow cytometry on cells; HEK293T cells transfected with pTSHR and GFP, mixed with PBS or purified mouse serum IgGs, washed, stained with M22 mAb, then APC-conjugated anti-human IgG
T5 construct: thyroid-stimulating hormone receptor, porcine, cDNA NM_214297.1; also called pTSHR; source: HEK293T, transfected (with GFP), on cells
T5 sequence (Q8SPP9 22-764): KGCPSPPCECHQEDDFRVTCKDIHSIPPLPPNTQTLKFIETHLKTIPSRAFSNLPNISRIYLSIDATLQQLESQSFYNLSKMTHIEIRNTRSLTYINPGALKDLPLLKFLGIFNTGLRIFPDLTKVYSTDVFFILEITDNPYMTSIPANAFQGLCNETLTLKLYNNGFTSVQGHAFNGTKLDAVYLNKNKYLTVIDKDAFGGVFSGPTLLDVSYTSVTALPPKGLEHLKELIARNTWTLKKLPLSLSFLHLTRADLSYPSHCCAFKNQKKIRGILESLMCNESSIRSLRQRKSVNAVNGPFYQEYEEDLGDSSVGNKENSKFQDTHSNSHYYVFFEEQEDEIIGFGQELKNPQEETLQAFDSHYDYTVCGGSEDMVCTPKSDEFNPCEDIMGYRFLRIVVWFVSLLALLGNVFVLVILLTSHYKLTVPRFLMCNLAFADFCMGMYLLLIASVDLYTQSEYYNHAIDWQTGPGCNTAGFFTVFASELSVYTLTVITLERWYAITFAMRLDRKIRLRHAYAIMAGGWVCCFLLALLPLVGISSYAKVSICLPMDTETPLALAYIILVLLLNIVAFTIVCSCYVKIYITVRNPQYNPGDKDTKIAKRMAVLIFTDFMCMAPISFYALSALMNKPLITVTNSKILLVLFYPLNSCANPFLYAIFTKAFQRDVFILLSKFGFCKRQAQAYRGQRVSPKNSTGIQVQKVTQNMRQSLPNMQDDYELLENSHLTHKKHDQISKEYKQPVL

[5] = target: T6, full-length human thyroid-stimulating hormone receptor, transfected alone (Homo sapiens, UniProt P16473); assay: flow cytometry on cells; HEK293T cells transfected with TSHR or TSHR ECD with or without HLA-DP (pME18S, with GFP), incubated with the human anti-TSHR mAb, then APC-conjugated anti-human IgG; FACSCalibur; MFI minus that of GFP-negative cells
T6 construct: thyroid-stimulating hormone receptor (TSHR), human, cDNA AY429111.1, full length; no MHC class II co-transfected; also called TSHR; human TSHR; source: HEK293T, transfected (pME18S), on cells

[6] = target: T7, full-length human TSHR cotransfected with HLA-DP4 (HLA-DPA1*01:03/HLA-DPB1*04:01) (Homo sapiens; HLA-DPA1*01:03/DPB1*04:01, UniProt P16473;IMGT, strain); assay: as above
T7 construct: thyroid-stimulating hormone receptor (TSHR), human, cDNA AY429111.1, full length; co-expressed in one cell; also called TSHR with HLA-DP4; source: HEK293T, co-transfected (pME18S), on cells; copies: + +

Binder | binding result [1] | binding result [2] | binding result [3] | binding result [4] | binding result (porcine TSHR) | binding result [5] | binding result [6]
B1 | binds | binds | binds | binds |  |  | 
B2 |  |  |  |  | binds |  | 
B3 | binds |  |  |  |  | no binding | no binding
